Experiment in all cases: cell-based or functional assay
The target of assay [1] is LASV Josiah (lineage IV) glycoprotein, full-length GP (Lassa virus, Josiah strain) (UniProt P08669).
The target is the same in assay [2]. The source holds these as a separate data set.
The target of assay [3] is LASV A19 (lineage II) glycoprotein (Lassa virus, strain A19).
The target of assay [4] is LASV Pinneo (lineage I) glycoprotein (Lassa virus, strain Pinneo).
Assay [5] has as its target LASV 237 (lineage III) glycoprotein (Lassa virus, strain 237).

Where two headings read alike, the source gives them in different places. Where only a bound is given, the exact number is not on record here.

Chain of LASV Josiah (lineage IV) glycoprotein, full-length GP (Lassa virus, Josiah strain) (P08669 2-491): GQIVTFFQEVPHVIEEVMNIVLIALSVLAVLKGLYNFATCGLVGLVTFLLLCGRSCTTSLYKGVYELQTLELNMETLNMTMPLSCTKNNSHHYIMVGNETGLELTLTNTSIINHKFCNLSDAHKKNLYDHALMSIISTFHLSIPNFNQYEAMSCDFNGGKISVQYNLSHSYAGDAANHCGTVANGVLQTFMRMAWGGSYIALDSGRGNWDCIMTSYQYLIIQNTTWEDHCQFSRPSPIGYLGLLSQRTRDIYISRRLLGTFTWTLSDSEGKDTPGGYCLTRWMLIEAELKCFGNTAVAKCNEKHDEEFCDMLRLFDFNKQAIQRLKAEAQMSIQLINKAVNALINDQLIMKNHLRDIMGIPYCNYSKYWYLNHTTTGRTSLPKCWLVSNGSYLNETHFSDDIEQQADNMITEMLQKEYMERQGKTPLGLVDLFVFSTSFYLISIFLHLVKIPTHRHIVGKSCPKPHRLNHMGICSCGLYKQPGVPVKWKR

B1: 25.10C (antibody, V domains shown)
VH: QVQLQESGGGLVKPGGSLRLSCTASGFNFNKYNMNWVRQAPGKGLEWVSSISALSTYIYYADSLKGRFTVSRDNAKNSLFLQMNSLRDDDTAVYYCAREIRRASTWSADLWGRGTLVTVSS
VL: DIQMTQSPSSLSASVGDRVIITCRASQSISSSLNWYQQKPGKAPKLLIYAAVNLETGVPSRFSGSGFGTDFTLAISNVQPEDFATYYCQQSDTRTFGRGTKLDVKR
Regarding B1, the IC50 (neutralization) in assay [1] is 0.16 µg/mL; in assay [2], 0.094 µg/mL; in assay [3] it was 0.104 µg/mL; in assay [4], 0.226 µg/mL; in assay [5], 0.058 µg/mL. Moreover, the IC80 (neutralization) in assay [1] is 0.247 µg/mL; in assay [2], 0.174 µg/mL; in assay [3], 0.364 µg/mL; in assay [4], 0.564 µg/mL; in assay [5], 0.18 µg/mL.

B2: 19.7E (antibody, V domains shown)
VH: EVQLVESGGGLVRPGGSLRLSCAASGFSFSSYSMHWVRHVPGKGLVWVSYINSDGSTKIYADSVKGRFSISRDNAKNKLYLQMDSLRVEDTAVYSCVRLVHYDWSPFVWGQGTLVTVSS
VL: EIVLTQSPSTLSASVGDRVTITCRASQSINNWLAWYQEKPGKAPKLLINKASSLESGVPSRFSGSGSGTEFTLTITSLQPDDFATYYCQQYNSNSWTFGQGTKVDMKR
For the molecule B2, the IC50 (neutralization) in assay [1] is 1.19 µg/mL; in assay [2] it was 5.91 µg/mL; in assay [3] it was > 20 µg/mL; in assay [4] it was 1.56 µg/mL; in assay [5], 1.06 µg/mL. Further, the IC80 (neutralization) was > 10 µg/mL in assay [1]; > 20 µg/mL in assay [2]; > 20 µg/mL in assay [3]; 3.27 µg/mL in assay [4]; 15 µg/mL in assay [5].

Values taken from patent US20200002405A1.
